Measurements published in article PMC11870197.

T1: 6xHis-PhoP (Lacticaseibacillus paracasei BL23, UniProt Q03AN9 1-235)
T1 sequence: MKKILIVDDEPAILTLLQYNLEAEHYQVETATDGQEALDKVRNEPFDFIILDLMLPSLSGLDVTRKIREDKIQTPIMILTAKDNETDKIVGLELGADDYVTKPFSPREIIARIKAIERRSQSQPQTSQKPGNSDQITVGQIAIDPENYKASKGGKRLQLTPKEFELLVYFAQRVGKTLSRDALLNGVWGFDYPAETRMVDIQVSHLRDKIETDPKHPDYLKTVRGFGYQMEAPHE

T2: 6xHis-PhoP~P (Lacticaseibacillus paracasei BL23, UniProt Q03AN9 1-235)
T2 sequence: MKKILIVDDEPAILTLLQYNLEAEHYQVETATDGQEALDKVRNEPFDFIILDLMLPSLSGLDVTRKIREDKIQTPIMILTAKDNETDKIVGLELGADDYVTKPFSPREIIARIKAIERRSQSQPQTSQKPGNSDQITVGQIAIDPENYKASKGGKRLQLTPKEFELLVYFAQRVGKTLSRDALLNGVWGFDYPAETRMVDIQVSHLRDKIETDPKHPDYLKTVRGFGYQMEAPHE


Assays:
Experiment in all cases: EMSA
6xHis-PhoP = target: T1, 6xHis-PhoP
6xHis-PhoP~P [1] = target: T2, 6xHis-PhoP~P
6xHis-PhoP~P [2] = target: T2, 6xHis-PhoP~P; remark: listed apart in the source

| Binder | binding result (6xHis-PhoP) | binding result (6xHis-PhoP~P [1]) | binding signal (6xHis-PhoP~P [2]) |
| --- | --- | --- | --- |
| ackA promoter fragment (dsDNA) DNA 1: GATTCGCCGAAAACCAAGAAAAAGTCATGATGCTGTGCGATTACGTGTGCGGCAATCCGACTACCCGTTTAGAGGAGGAAAAAAACAATGGCAAAAATTCTCGCAGTCAACGCAGGCAGTTC DNA 2: GAACTGCCTGCGTTGACTGCGAGAATTTTTGCCATTGTTTTTTTCCTCCTCTAAACGGGTAGTCGGATTGCCGCACACGTAATCGCACAGCATCATGACTTTTTCTTGGTTTTCGGCGAATC | no binding | no binding |  |
| poxL promoter fragment (dsDNA) DNA 1: TTGATCCATGATCCTGATCATCATTAAGTTAATTTGTGAAAAAGGTTTACCAAGCATGTTATGGCGTGGTGATGCTGTATTAGTTCACTTGTTTGACTGTTATGGTGTCGTCG DNA 2: CGACGACACCATAACAGTCAAACAAGTGAACTAATACAGCATCACCACGCCATAACATGCTTGGTAAACCTTTTTCACAAATTAACTTAATGATGATCAGGATCATGGATCAA | no binding | no binding |  |
| glnA promoter fragment (dsDNA) DNA 1: TGCCAAATTAGTGACGCTATTTGCAAATTCCCCCGCGACAATTTTTAGACAATCTTTCCTTTTATTTAAAATCATGTAACATTAGGGCCGAACGATACATATGTAACGGTGTTTTTTAACC DNA 2: GGTTAAAAAACACCGTTACATATGTATCGTTCGGCCCTAATGTTACATGATTTTAAATAAAAGGAAAGATTGTCTAAAAATTGTCGCGGGGGAATTTGCAAATAGCGTCACTAATTTGGCA |  |  | ~10 fold more PhoP required than for pstS or phnD |
